Reference: patent US20260167699A1 (Chugai, published 2026)

molecular target: T1, FcγRIIIa extracellular domain, C-terminal His tag (human, UniProt P08637 17-208); assay: SPR, binding activity relative to GpH7-A5/GpH7-B3/GpL16-k0 (=100)
T1 construct: extracellular domain; also called 3a
T1 sequence (P08637 other isoform, or with tags, fused parts or gaps): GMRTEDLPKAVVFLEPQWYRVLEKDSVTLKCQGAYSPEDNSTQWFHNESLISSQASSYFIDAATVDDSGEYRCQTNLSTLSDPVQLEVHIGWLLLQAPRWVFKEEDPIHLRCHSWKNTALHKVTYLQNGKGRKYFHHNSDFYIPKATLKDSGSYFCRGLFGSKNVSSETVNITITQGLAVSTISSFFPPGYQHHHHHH

Binder | He/Con 3a
GpH7-A5/GpH7-B3 variant E333_12R/GpL16-k0 (antibody, human IgG1, kappa, He Ab; copies: 1 + 1 + 2) heavy 1: not shown heavy 2: not shown light: DIVMTQSPLSLPVTPGEPASISCQASESLVHSNRNTYLHWYLQKPGQSPQLLIYKVSNRFSGVPDRFSGSGSGTDFTLKISRVEAEDVGVYYCSQNTHVPPTFGQGTKVEIERTVAAPSVFIFPPSDEQLKSGTASVVCLLNNFYPREAKVQWKVDNALQSGNSQESVTEQDSKDSTYSLSSTLTLSKADYEKHKVYACEVTHQGLSSPVTKSFNRGEC | 92.2%
GpH7-A5/GpH7-B3 variant H268_06M/GpL16-k0 (antibody, human IgG1, kappa, He Ab; copies: 1 + 1 + 2) heavy 1: not shown heavy 2: not shown light: DIVMTQSPLSLPVTPGEPASISCQASESLVHSNRNTYLHWYLQKPGQSPQLLIYKVSNRFSGVPDRFSGSGSGTDFTLKISRVEAEDVGVYYCSQNTHVPPTFGQGTKVEIERTVAAPSVFIFPPSDEQLKSGTASVVCLLNNFYPREAKVQWKVDNALQSGNSQESVTEQDSKDSTYSLSSTLTLSKADYEKHKVYACEVTHQGLSSPVTKSFNRGEC | 79.5%
GpH7-A5/GpH7-B3 variant H268_08L/GpL16-k0 (antibody, human IgG1, kappa, He Ab; copies: 1 + 1 + 2) heavy 1: not shown heavy 2: not shown light: DIVMTQSPLSLPVTPGEPASISCQASESLVHSNRNTYLHWYLQKPGQSPQLLIYKVSNRFSGVPDRFSGSGSGTDFTLKISRVEAEDVGVYYCSQNTHVPPTFGQGTKVEIERTVAAPSVFIFPPSDEQLKSGTASVVCLLNNFYPREAKVQWKVDNALQSGNSQESVTEQDSKDSTYSLSSTLTLSKADYEKHKVYACEVTHQGLSSPVTKSFNRGEC | 75.9%
GpH7-A5/GpH7-B3 variant G236_02A/GpL16-k0 (antibody, human IgG1, kappa, He Ab; copies: 1 + 1 + 2) heavy 1: not shown heavy 2: not shown light: DIVMTQSPLSLPVTPGEPASISCQASESLVHSNRNTYLHWYLQKPGQSPQLLIYKVSNRFSGVPDRFSGSGSGTDFTLKISRVEAEDVGVYYCSQNTHVPPTFGQGTKVEIERTVAAPSVFIFPPSDEQLKSGTASVVCLLNNFYPREAKVQWKVDNALQSGNSQESVTEQDSKDSTYSLSSTLTLSKADYEKHKVYACEVTHQGLSSPVTKSFNRGEC | 77%
GpH7-A5/GpH7-B3 variant G236_20W/GpL16-k0 (antibody, human IgG1, kappa, He Ab; copies: 1 + 1 + 2) heavy 1: not shown heavy 2: not shown light: DIVMTQSPLSLPVTPGEPASISCQASESLVHSNRNTYLHWYLQKPGQSPQLLIYKVSNRFSGVPDRFSGSGSGTDFTLKISRVEAEDVGVYYCSQNTHVPPTFGQGTKVEIERTVAAPSVFIFPPSDEQLKSGTASVVCLLNNFYPREAKVQWKVDNALQSGNSQESVTEQDSKDSTYSLSSTLTLSKADYEKHKVYACEVTHQGLSSPVTKSFNRGEC | 126%
GpH7-A5/GpH7-B3 variant G236_15Y/GpL16-k0 (antibody, human IgG1, kappa, He Ab; copies: 1 + 1 + 2) heavy 1: not shown heavy 2: not shown light: DIVMTQSPLSLPVTPGEPASISCQASESLVHSNRNTYLHWYLQKPGQSPQLLIYKVSNRFSGVPDRFSGSGSGTDFTLKISRVEAEDVGVYYCSQNTHVPPTFGQGTKVEIERTVAAPSVFIFPPSDEQLKSGTASVVCLLNNFYPREAKVQWKVDNALQSGNSQESVTEQDSKDSTYSLSSTLTLSKADYEKHKVYACEVTHQGLSSPVTKSFNRGEC | 112%
GpH7-A5/GpH7-B3 variant H268_09D/GpL16-k0 (antibody, human IgG1, kappa, He Ab; copies: 1 + 1 + 2) heavy 1: not shown heavy 2: not shown light: DIVMTQSPLSLPVTPGEPASISCQASESLVHSNRNTYLHWYLQKPGQSPQLLIYKVSNRFSGVPDRFSGSGSGTDFTLKISRVEAEDVGVYYCSQNTHVPPTFGQGTKVEIERTVAAPSVFIFPPSDEQLKSGTASVVCLLNNFYPREAKVQWKVDNALQSGNSQESVTEQDSKDSTYSLSSTLTLSKADYEKHKVYACEVTHQGLSSPVTKSFNRGEC | 195%
GpH7-A5/GpH7-B3 variant H268_02A/GpL16-k0 (antibody, human IgG1, kappa, He Ab; copies: 1 + 1 + 2) heavy 1: not shown heavy 2: not shown light: DIVMTQSPLSLPVTPGEPASISCQASESLVHSNRNTYLHWYLQKPGQSPQLLIYKVSNRFSGVPDRFSGSGSGTDFTLKISRVEAEDVGVYYCSQNTHVPPTFGQGTKVEIERTVAAPSVFIFPPSDEQLKSGTASVVCLLNNFYPREAKVQWKVDNALQSGNSQESVTEQDSKDSTYSLSSTLTLSKADYEKHKVYACEVTHQGLSSPVTKSFNRGEC | 121%
GpH7-A5/GpH7-B3 variant G237_03V/GpL16-k0 (antibody, human IgG1, kappa, He Ab; copies: 1 + 1 + 2) heavy 1: not shown heavy 2: not shown light: DIVMTQSPLSLPVTPGEPASISCQASESLVHSNRNTYLHWYLQKPGQSPQLLIYKVSNRFSGVPDRFSGSGSGTDFTLKISRVEAEDVGVYYCSQNTHVPPTFGQGTKVEIERTVAAPSVFIFPPSDEQLKSGTASVVCLLNNFYPREAKVQWKVDNALQSGNSQESVTEQDSKDSTYSLSSTLTLSKADYEKHKVYACEVTHQGLSSPVTKSFNRGEC | 51.3%
GpH7-A5/GpH7-B3 variant G236_09D/GpL16-k0 (antibody, human IgG1, kappa, He Ab; copies: 1 + 1 + 2) heavy 1: not shown heavy 2: not shown light: DIVMTQSPLSLPVTPGEPASISCQASESLVHSNRNTYLHWYLQKPGQSPQLLIYKVSNRFSGVPDRFSGSGSGTDFTLKISRVEAEDVGVYYCSQNTHVPPTFGQGTKVEIERTVAAPSVFIFPPSDEQLKSGTASVVCLLNNFYPREAKVQWKVDNALQSGNSQESVTEQDSKDSTYSLSSTLTLSKADYEKHKVYACEVTHQGLSSPVTKSFNRGEC | 66.2%
GpH7-A5/GpH7-B3 variant H268_10E/GpL16-k0 (antibody, human IgG1, kappa, He Ab; copies: 1 + 1 + 2) heavy 1: not shown heavy 2: not shown light: DIVMTQSPLSLPVTPGEPASISCQASESLVHSNRNTYLHWYLQKPGQSPQLLIYKVSNRFSGVPDRFSGSGSGTDFTLKISRVEAEDVGVYYCSQNTHVPPTFGQGTKVEIERTVAAPSVFIFPPSDEQLKSGTASVVCLLNNFYPREAKVQWKVDNALQSGNSQESVTEQDSKDSTYSLSSTLTLSKADYEKHKVYACEVTHQGLSSPVTKSFNRGEC | 184%
GpH7-A5/GpH7-B3 variant G236_07I/GpL16-k0 (antibody, human IgG1, kappa, He Ab; copies: 1 + 1 + 2) heavy 1: not shown heavy 2: not shown light: DIVMTQSPLSLPVTPGEPASISCQASESLVHSNRNTYLHWYLQKPGQSPQLLIYKVSNRFSGVPDRFSGSGSGTDFTLKISRVEAEDVGVYYCSQNTHVPPTFGQGTKVEIERTVAAPSVFIFPPSDEQLKSGTASVVCLLNNFYPREAKVQWKVDNALQSGNSQESVTEQDSKDSTYSLSSTLTLSKADYEKHKVYACEVTHQGLSSPVTKSFNRGEC | 55.6%
GpH7-A5/GpH7-B3 variant G237_14T/GpL16-k0 (antibody, human IgG1, kappa, He Ab; copies: 1 + 1 + 2) heavy 1: not shown heavy 2: not shown light: DIVMTQSPLSLPVTPGEPASISCQASESLVHSNRNTYLHWYLQKPGQSPQLLIYKVSNRFSGVPDRFSGSGSGTDFTLKISRVEAEDVGVYYCSQNTHVPPTFGQGTKVEIERTVAAPSVFIFPPSDEQLKSGTASVVCLLNNFYPREAKVQWKVDNALQSGNSQESVTEQDSKDSTYSLSSTLTLSKADYEKHKVYACEVTHQGLSSPVTKSFNRGEC | 50.5%
GpH7-A5/GpH7-B3 variant H268_03V/GpL16-k0 (antibody, human IgG1, kappa, He Ab; copies: 1 + 1 + 2) heavy 1: not shown heavy 2: not shown light: DIVMTQSPLSLPVTPGEPASISCQASESLVHSNRNTYLHWYLQKPGQSPQLLIYKVSNRFSGVPDRFSGSGSGTDFTLKISRVEAEDVGVYYCSQNTHVPPTFGQGTKVEIERTVAAPSVFIFPPSDEQLKSGTASVVCLLNNFYPREAKVQWKVDNALQSGNSQESVTEQDSKDSTYSLSSTLTLSKADYEKHKVYACEVTHQGLSSPVTKSFNRGEC | 91.4%
GpH7-A5/GpH7-B3 variant E333_14T/GpL16-k0 (antibody, human IgG1, kappa, He Ab; copies: 1 + 1 + 2) heavy 1: not shown heavy 2: not shown light: DIVMTQSPLSLPVTPGEPASISCQASESLVHSNRNTYLHWYLQKPGQSPQLLIYKVSNRFSGVPDRFSGSGSGTDFTLKISRVEAEDVGVYYCSQNTHVPPTFGQGTKVEIERTVAAPSVFIFPPSDEQLKSGTASVVCLLNNFYPREAKVQWKVDNALQSGNSQESVTEQDSKDSTYSLSSTLTLSKADYEKHKVYACEVTHQGLSSPVTKSFNRGEC | 100%
GpH7-A5/GpH7-B3 variant G236_10E/GpL16-k0 (antibody, human IgG1, kappa, He Ab; copies: 1 + 1 + 2) heavy 1: not shown heavy 2: not shown light: DIVMTQSPLSLPVTPGEPASISCQASESLVHSNRNTYLHWYLQKPGQSPQLLIYKVSNRFSGVPDRFSGSGSGTDFTLKISRVEAEDVGVYYCSQNTHVPPTFGQGTKVEIERTVAAPSVFIFPPSDEQLKSGTASVVCLLNNFYPREAKVQWKVDNALQSGNSQESVTEQDSKDSTYSLSSTLTLSKADYEKHKVYACEVTHQGLSSPVTKSFNRGEC | 65.8%
GpH7-A5/GpH7-B3 variant G236_04F/GpL16-k0 (antibody, human IgG1, kappa, He Ab; copies: 1 + 1 + 2) heavy 1: not shown heavy 2: not shown light: DIVMTQSPLSLPVTPGEPASISCQASESLVHSNRNTYLHWYLQKPGQSPQLLIYKVSNRFSGVPDRFSGSGSGTDFTLKISRVEAEDVGVYYCSQNTHVPPTFGQGTKVEIERTVAAPSVFIFPPSDEQLKSGTASVVCLLNNFYPREAKVQWKVDNALQSGNSQESVTEQDSKDSTYSLSSTLTLSKADYEKHKVYACEVTHQGLSSPVTKSFNRGEC | 81%
GpH7-A5/GpH7-B3 variant H268_07I/GpL16-k0 (antibody, human IgG1, kappa, He Ab; copies: 1 + 1 + 2) heavy 1: not shown heavy 2: not shown light: DIVMTQSPLSLPVTPGEPASISCQASESLVHSNRNTYLHWYLQKPGQSPQLLIYKVSNRFSGVPDRFSGSGSGTDFTLKISRVEAEDVGVYYCSQNTHVPPTFGQGTKVEIERTVAAPSVFIFPPSDEQLKSGTASVVCLLNNFYPREAKVQWKVDNALQSGNSQESVTEQDSKDSTYSLSSTLTLSKADYEKHKVYACEVTHQGLSSPVTKSFNRGEC | 84.1%
GpH7-A5/GpH7-B3 variant H268_04F/GpL16-k0 (antibody, human IgG1, kappa, He Ab; copies: 1 + 1 + 2) heavy 1: not shown heavy 2: not shown light: DIVMTQSPLSLPVTPGEPASISCQASESLVHSNRNTYLHWYLQKPGQSPQLLIYKVSNRFSGVPDRFSGSGSGTDFTLKISRVEAEDVGVYYCSQNTHVPPTFGQGTKVEIERTVAAPSVFIFPPSDEQLKSGTASVVCLLNNFYPREAKVQWKVDNALQSGNSQESVTEQDSKDSTYSLSSTLTLSKADYEKHKVYACEVTHQGLSSPVTKSFNRGEC | 96%
GpH7-A5/GpH7-B3 variant E333_18N/GpL16-k0 (antibody, human IgG1, kappa, He Ab; copies: 1 + 1 + 2) heavy 1: not shown heavy 2: not shown light: DIVMTQSPLSLPVTPGEPASISCQASESLVHSNRNTYLHWYLQKPGQSPQLLIYKVSNRFSGVPDRFSGSGSGTDFTLKISRVEAEDVGVYYCSQNTHVPPTFGQGTKVEIERTVAAPSVFIFPPSDEQLKSGTASVVCLLNNFYPREAKVQWKVDNALQSGNSQESVTEQDSKDSTYSLSSTLTLSKADYEKHKVYACEVTHQGLSSPVTKSFNRGEC | 76.2%
GpH7-A5/GpH7-B3 variant G236_03V/GpL16-k0 (antibody, human IgG1, kappa, He Ab; copies: 1 + 1 + 2) heavy 1: not shown heavy 2: not shown light: DIVMTQSPLSLPVTPGEPASISCQASESLVHSNRNTYLHWYLQKPGQSPQLLIYKVSNRFSGVPDRFSGSGSGTDFTLKISRVEAEDVGVYYCSQNTHVPPTFGQGTKVEIERTVAAPSVFIFPPSDEQLKSGTASVVCLLNNFYPREAKVQWKVDNALQSGNSQESVTEQDSKDSTYSLSSTLTLSKADYEKHKVYACEVTHQGLSSPVTKSFNRGEC | 53.8%
GpH7-A5/GpH7-B3 variant H268_01G/GpL16-k0 (antibody, human IgG1, kappa, He Ab; copies: 1 + 1 + 2) heavy 1: not shown heavy 2: not shown light: DIVMTQSPLSLPVTPGEPASISCQASESLVHSNRNTYLHWYLQKPGQSPQLLIYKVSNRFSGVPDRFSGSGSGTDFTLKISRVEAEDVGVYYCSQNTHVPPTFGQGTKVEIERTVAAPSVFIFPPSDEQLKSGTASVVCLLNNFYPREAKVQWKVDNALQSGNSQESVTEQDSKDSTYSLSSTLTLSKADYEKHKVYACEVTHQGLSSPVTKSFNRGEC | 95.7%
